The results in this text go back to patent US20030180744.

The target of data set [1] is T1, KGF (hKGF) (Homo sapiens) (UniProt P21781).
T1 sequence: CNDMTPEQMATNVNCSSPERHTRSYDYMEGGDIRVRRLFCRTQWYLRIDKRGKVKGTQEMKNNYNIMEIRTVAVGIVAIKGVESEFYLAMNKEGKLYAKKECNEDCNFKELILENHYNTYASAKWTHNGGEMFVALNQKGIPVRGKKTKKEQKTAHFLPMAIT
Nature of the data set: filter.

For data set [2], the target named is T1, KGF (hKGF) (Homo sapiens). Nature of the data set: competition. Particulars: 2'-F pyrimidines, PC-3 cells.
Data set [3] has as its target PDGF-AB (Homo sapiens) (UniProt P04085+P01127). In words: filter. Particulars: 2'-F pyrimidines; +/-7; random pool.
Data set [4] addresses T1, KGF (hKGF) (Homo sapiens). Nature of the data set: FP. Particulars: 2'-F pyrimidines; method is nitrocellulose filter binding; DPBS, 37 C.

PDGF-AB (Homo sapiens), sequence (P01127 82-190, chain 2 of 2, other chains not shown): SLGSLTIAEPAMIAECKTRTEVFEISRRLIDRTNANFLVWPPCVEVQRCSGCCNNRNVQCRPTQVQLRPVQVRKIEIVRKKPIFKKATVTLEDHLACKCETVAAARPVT

Consider “GGGAGGACGAUGCGGCAANNNNNNNCUCUCUCCUGGCGUUCCGCAACCCGCCCCCAGACGACUCGCCCGA [19F]”, for which, in data set [1] (2'-F pyrimidines, second column 0.94-2.57, DPBS, 37 C), the Kd was found to be 1.6 nM.

In data set [1] (2'-NH2 pyrimidines, random pool), “GGGAGGACGAUGCGGNNNNNNNNNNNNNNNNNNNNNNNNNNNNNNNNNNNNNNNNCAGACGACUCGCCCGA [random 2'-NH2 RNA 40N7]” showed a Kd of 30 nM.

“GGGAGGACGAUGCGGNNNNNNNNNNNNNNNNNNNNNNNNNNNNNNNNNNNNNNNNCAGACGACUCGCCCGA [random 2'-F RNA 40N7]” yielded a Kd in data set [1] (2'-F pyrimidines, random pool) of 30 nM.

In data set [2], “GGGAGGACGAUGCGGNGACUGAUUUUUCCUUGNCAGUGUAAUUUCCUGGCUGCCCCAGACGACUCGCCCGA [38F]” registered an IC50 of 0.6 nM. Also, the Ki in data set [2] (20 nM on NIH3T3/FGFR-2) stood at 0.22 nM. This sequence came in with a Kd in data set [1] (2'-F pyrimidines, DPBS, 37 C, PC-3 Ki 0.22 nM) of 0.33 nM.

For “GGGAGGACGAUGCGGGAAUUCCCAGCGCUUGACUGAUACAAACNUUCCCGUGCCCCAGACGACUCGCCCGA [16F]”, the Kd in data set [1] (2'-F pyrimidines, biphasic, high affinity 49%, Kd2 3.39 nM) was 0.83 nM.

In data set [3], “GGGAGACAAGAAUAACGCUCAANNNNNNNNNNNNNNNNNNNNNNNNNNNNNNNNNNNNNNNNNNNNNNNNNNUUCGACAGGAGGCUCACAACAGGC [random 2'-F RNA 50N]” came in with a Kd of 35 nM.

Sequence “GGGAGGACGAUGCGGGAAUUAACAGGGCCAGAAUUCUCAUCUNNCUUCCCGUGACCCAGACGACUCGCCCGA [12F]” came in with a Kd in data set [4] of 1.38 nM.

In data set [1] (2'-F pyrimidines, DPBS, 37 C), “GGGAGGACGAUGCGGUCGAGUGUUCUCCUUCGGUAACUAUUNNNNAUUUCGUGCCCAGACGACUCGCCCGA [44F]” had a Kd of 1.32 nM.

In turn, “GGGAGGACGAUGCGGAACGGAGAUGUCCCCUCAAMAUUUACCGUCUCCGUUUGCGCCCCAGACGACUCGCCCGA [31F]” registered a Kd in data set [1] (2'-F pyrimidines, DPBS, 37 C) of 1 nM.

Sequence “GGGAGGACGAUGCGGGGACAAWYAGCGGUGUCUUUUCAUUUNKAUCCUCCGACRUCCCAGACGACUCGCCCGA [56F]” displayed an IC50 in data set [2] of 1 nM. Moreover, the Ki in data set [2] (27.4 nM on NIH3T3/FGFR-2) came out at 0.16 nM. The same sequence showed a Kd in data set [1] (2'-F pyrimidines, biphasic, high affinity 32%, Kd2 3.00 nM, PC-3 Ki 0.16 nM) of 0.07 nM.

“GGGAGGACGAUGCGGCAGUCUCCCUAGGUUUCAUCUCUGCAGCAUUCCGGGGUNCCAGACGACUCGCCCGA [51F]” showed a Kd in data set [1] (2'-F pyrimidines, DPBS, 37 C) of 1.27 nM.

As a reminder, the Kd is a measure of binding affinity in units of concentration. Low readings indicate a tighter complex, high ones a looser complex. By IC50 is commonly meant the concentration that gives 50% inhibition. Read a low IC50 as greater potency. What is called Ki is a dissociation constant, usually derived from enzyme kinetics or from competition with a known ligand. A higher Ki goes with weaker binding.
